Substrate in the data set: O=C1O[C@H]([C@@H](O)CO)C(O)=C1O
The experiment in a line: two-electrode voltage clamp in Xenopus oocytes, trans-plasma membrane current. The class given is cell-based, Arabidopsis thaliana. To be noted: cytosolic electron donor, raised by injection; ferricyanide as extracellular electron acceptor.

The results in this text go back to PMC10784544, “Ferric reduction by a CYBDOM protein counteracts increased iron availability in root meristems induced by phosphorus deficiency” (Nature Communications, 2024).

B1: HYP1 (… TO LOW P1) (Arabidopsis thaliana) (protein)
chain: QSLCNTHRFTNNLAFADCSDLSALGSFLHWTYNEQNGTVSIAYRHPGTSASSWVAWGLNPSSTQMVGTQALVAFTNTTTNQFQAYTSSVSSYGTRLERSSLSFGVSGLSATLVSGEVTIFATLELSPNLITANQLWQVGPVVNGVPASHQTSGDNMRSSGRIDFRTGQASAGGGGSGDRLRKRNTHGVLNAVSWGVLMPMGAMMARYMKVFADPTWFYLHIAFQVSGYVIGVAGWATGIKLGNDSPGTSYSTHRNLGIALFTFATLQVFALLVRPKPDHKYRTYWNVYHHTVGYTTIILSIVNIFKGFDILDPEDKWRWAYIGILIFLGACVLILEPLTWFIVLRRKSRGGNTVAAPTSSKYSNGVNGTTTTGPHHQDA
notes: cDNA in pGEMHE, cRNA-injected Xenopus laevis oocytes
For B1, the Km amounted to 4 mM.

By Km is commonly meant the substrate concentration at which the rate is half of its maximum.
